The text below walks through data of PMC5292753, “Structural analysis and evolution of specificity of the SUMO UFD E1-E2 interactions” (Scientific Reports, 2017).

Assay [1] deals with SUMO E2 (Ubc9) (Homo sapiens) (UniProt P63279). The settings on record: cited from earlier work.
For assay [2] the target is unchanged. Kind of assay: NMR. The note with it: cited from earlier work.
Assay [3] concerns the target T1, human SUMO E2 conjugating enzyme Ubc9, full length (human, UniProt P63279 1-158, lysines methylated (borane-dimethylamine complex and formaldehyde), only in the complex that was crystallised).
T1 construct: SUMO-conjugating enzyme Ubc9, human, full length; Cloned in pET28a; the His tag was removed with thrombin, so a few residues of the vector may remain at the N-terminus; The complex with the UFD was lysine-methylated after gel filtration and only then crystallised; also called hSUMO Ubc9; source: E. coli BL21(DE3) pLysS, purified (Ni-NTA, thrombin, Superdex75 gel filtration); not shown: His6, …
Kind of assay: native gel or EMSA; native gel electrophoresis of human E1 UFD domain with Ubc9 (Supplementary Fig. S1). The settings on record: both partners purified. (In general: Mobility shift assays separate free from complexed probe on a gel.)

Like-named read-outs stand apart in the source and are kept apart here.

Chain of SUMO E2 (Ubc9) (Homo sapiens) (P63279 2-158): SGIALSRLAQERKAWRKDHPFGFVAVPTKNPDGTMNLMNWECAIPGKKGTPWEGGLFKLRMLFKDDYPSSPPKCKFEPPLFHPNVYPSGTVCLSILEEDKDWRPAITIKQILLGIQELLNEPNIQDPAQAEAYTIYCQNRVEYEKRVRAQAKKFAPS
T1 sequence (P63279 whole entry): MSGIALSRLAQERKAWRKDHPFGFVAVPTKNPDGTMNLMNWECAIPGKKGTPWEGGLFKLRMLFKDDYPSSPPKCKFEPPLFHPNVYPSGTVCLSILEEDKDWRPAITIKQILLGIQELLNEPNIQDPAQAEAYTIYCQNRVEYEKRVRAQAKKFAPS

A word on the Kd: it is a measure of binding affinity in units of concentration. On to SUMO E1 UFD UFD (from UniProt Q9UBT2), for which the Kd in assay [1] was 1.2 µM.

In the case of “SUMO E1 Cys domain Cys domain (from UniProt Q9UBT2)”, the Kd in assay [2] is 87 µM.

B1: human SUMO E1 Uba2 ubiquitin-fold domain (UFD), residues 447-547 (domain or fragment, UniProt Q9UBT2 447-547, looked up)
chain: KPEVTVRLNVHKVTVLTLQDKIVKEKFAMVAPDVQIEDGKGTILISSEEGETEANNHKKLSEFGIRNGSRLQADDFLQDYTLLINILHSEDLGKDVEFEVV
modifications: lysines methylated (borane-dimethylamine complex and formaldehyde), only in the complex that was crystallised
notes: designed from the structure of full-length human SAE1-SAE2 (PDB 1Y8Q); Cloned in pET28a; the His tag was removed with thrombin, so a few residues of the vector may remain at the N-terminus; The complex with Ubc9 was lysine-methylated after gel filtration and only then crystallised; the native gel and the gel filtration used the unmethylated protein; also called E1 UFD domain; HsUba2 UFD; source: …
As for B1, the binding result in assay [3] is reported as “binds”.
